Reference: patent US20240279328A1 (Johns Hopkins, published 2024)
Where a chain is given by its changes, count along the chain named.

B1: F5111 antibody (wild type anti-hIL2 antibody, human IgG1, lambda light chain) (antibody)
heavy: not shown
light: GSNFMLTQPHSVSESPGKTVTISCTRSSGSIASNYVQWYQQRPGSSPTTVIYEDNQRPSGVPDRFSGSIDSSSNSASLTISGLKTEDEADYYCQSYDSSNVVFGGGTKLTVLGQPKAAPSVTLFPPSSEELQANKATLVCLISDFYPGAVTVAWKADSSPVKAGVETTTPSKQSNNKYAASSYLSLTPEQWKSHRSYSCQVTHEGSTVEKTVAPTECS
notes: Expressed in CHO cells, purified on protein G; also called F5111 WT; parent F5111 mAb
B2: F5111 M4 glycovariant (N-glycosylation site inserted in the light chain) (antibody, human IgG1, lambda, V domains shown)
VH: QLQLQESGPGLVKPSQTLSLTCTVSGGSISSGGYYWSWIRQHPGKGLEWIGYIYYSGSTYYNPSLKSRVTISVDTSKNQFSLKLSSVTAADTAVYYCARTPTVTGDWFDPWGRGTLVTVSS
VL: SNFMLTQPHSVSESPGKTVTISCTRSSGSIASNYVQWYQQRPGSSPTTVIYEDNQRPSGVPDRFSGSINSSSNSASLTISGLKTEDEADYYCQSYDSSNVVFGGGTKLTVLG
modifications: inserted N-linked glycosylation site (position shown only in a drawing)
B3: F5111 M5 glycovariant (N-glycosylation site inserted in the light chain) (antibody, human IgG1, lambda, V domains shown)
VH: B2 VH
VL: B2 VL with N69D, S70N
modifications: inserted N-linked glycosylation site (position shown only in a drawing)
B4: F5111 M1 glycovariant (N-glycosylation site inserted in the heavy chain) (antibody, human IgG1, lambda)
heavy: not shown
light: B1 light
modifications: inserted N-linked glycosylation site (position shown only in a drawing)
B5: F5111 M2 glycovariant (N-glycosylation site inserted in the heavy chain) (antibody, human IgG1, lambda, V domains shown)
VH: B2 VH with S86N
VL: B2 VL with N69D
modifications: inserted N-linked glycosylation site (position shown only in a drawing)
B6: F5111 M3 glycovariant (N-glycosylation site inserted in the heavy chain) (antibody, human IgG1, lambda)
heavy: not shown
light: B1 light
modifications: inserted N-linked glycosylation site (position shown only in a drawing)
B7: 602 antibody (wild type anti-human IL-2 antibody) (antibody, mouse IgG2a, kappa)
heavy: DEVQLQESGPGLVAPSQSLSITCTVSGFSLTNYDISWIRQPPGKGLEWLGVIWTGGGTNYNSGFMSRLSITKDNSKSQVFLKMNSLQTDDTAIYYCVRQGRTPYWGQGTLVTVSAAKTTAPSVYPLAPVCGDTTGSSVTLGCLVKGYFPEPVTLTWNSGSLSSGVHTFPAVLQSDLYTLSSSVTVTSSTWPSQSITCNVAHPASSTKVDKKIEPRGPTIKPCPPCKCPAPNLLGGPSVFIFPPKIKDVLMISLSPIVTCVVVDVSEDDPDVQISWFVNNVEVHTAQTQTHREDYNSTLRVVSALPIQHQDWMSGKEFKCKVNNKDLPAPIERTISKPKGSVRAPQVYVLPPPEEEMTKKQVTLTCMVTDFMPEDIYVEWTNNGKTELNYKNTEPVLDSDGSYFMYSKLRVEKKNWVERNSYSCSVVHEGLHNHHTTKSFSRTPGK
light: AGSDIQVTQSPSSLSVSLGDRVTITCKASKDIYNRLAWYQQKPGNAPRLLISGATSLETGVPSRFSGSGSGKDYTLTITSLQTEDVATYYCQQFWGTPYTFGGGTKLEIKRADAAPTVSIFPPSSEQLTSGGASVVCFLNNFYPKDINVKWKIDGSERQNGVLNSWTDQDSKDSTYSMSSTLTLTKDEYERHNSYTCEATHKTSTSPIVKSFNRNEC
B8: 602 M8 glycovariant (N-glycosylation site inserted in the light chain) (antibody, mouse IgG2a, kappa)
heavy: B7 heavy
light: B7 light with D4N, Q6T
modifications: inserted N-linked glycosylation site (position shown only in a drawing)
notes: Two amino acids changed in the light chain to create a new N-glycosylation site; also called Mutant 8
B9: 602 M1 glycovariant (N-glycosylation site inserted in the heavy chain) (antibody, mouse IgG2a, kappa)
heavy: B7 heavy with Q107N
light: B7 light
modifications: inserted N-linked glycosylation site (position shown only in a drawing)
notes: One amino acid changed in the heavy chain to create a new N-glycosylation site; also called Mutant 1

Each binder was assayed against T1, human Interleukin-2 (human, UniProt P60568 21-153, biotinylated (site not stated) when immobilised on streptavidin biosensors; soluble in the competition studies) (assay: BLI, kinetic KD, immobilised human IL-2, soluble antibody).
T1 construct: also called IL-2; hIL-2
T1 sequence (P60568 21-153 limits assumed): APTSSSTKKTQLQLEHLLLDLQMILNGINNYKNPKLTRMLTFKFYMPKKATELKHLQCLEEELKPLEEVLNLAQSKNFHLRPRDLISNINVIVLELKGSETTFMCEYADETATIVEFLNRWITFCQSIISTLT
B1 showed a Kd of 630 pM.
Binder B2 has a Kd of 500 pM.
B3 was tested, and the Kd was 820 pM.
With B4 the Kd was 1100 pM.
For B5, the Kd was 760 pM.
B6 was tested, and the Kd was 550 pM.

The binders below were run against T1, human Interleukin-2 (assay: BLI (Octet), biotinylated human IL-2 immobilised on streptavidin tip, soluble antibody titrated, normalized equilibrium response).
Method: Error bars represent s.d.
(§1) Biolayer interferometry binding studies: Binding studies were performed via bio-layer interferometry using an OctetRED96® biolayer interferometry instrument (Sartorius). […] Once baseline measurements were collected in PBSA, binding kinetics were measured by submerging the biosensors in wells containing serial dilutions of the appropriate analytes for 300 s (association) followed by submerging the biosensor in wells containing only PBSA for 500 s (dissociation). […] An irrelevant protein (the monoclonal antibody ipilimumab) was used as a control for nonspecific binding. Tips were regenerated in 0.1 M glycine pH 2.7. Data was processed and kinetic parameters were calculated using the Octet® Data Analysis software version 7.1 (Sartorius), assuming a 1:1 Langmuir binding model.
B7 was tested, and the “EC50 (read off the curve)” value was roughly 3000 pM.

Each binder was assayed against T1, human Interleukin-2 (assay: BLI (Octet), biotinylated human IL-2 on streptavidin sensors, soluble antibody, 1:1 Langmuir fit).
Method: as §1, with “model. Equilibrium binding was determined by total response measured after 295 s. Equilibrium titration curve fitting and KD value determination was implemented using GraphPad Prism, assuming all binding interactions to be first order.” for “model.”
With B7 the koff was 0.0019 s⁻¹ and the kon was 780000 M⁻¹ s⁻¹.
B8 showed a koff of 0.0018 s⁻¹ and a kon of 1e+06 M⁻¹ s⁻¹.
In the case of B9, the koff is reported as 0.002 s⁻¹ and the kon is reported as 790000 M⁻¹ s⁻¹.

The binders below were run against T1, human Interleukin-2 (assay: BLI, equilibrium KD from titration curve, immobilised human IL-2, soluble antibody).
Method: as §1, with “model. Equilibrium binding was determined by total response measured after 295 s. Equilibrium titration curve fitting and KD value determination was implemented using GraphPad Prism, assuming all binding interactions to be first order.” for “model.”
In the case of B7, the Kd is reported as 3200 pM.
B8 was tested, and the Kd was 2300 pM.
Binder B9 has a Kd of 3200 pM.

Target: T1, human Interleukin-2
Assay: as above
Remark: another data set of the same source
B2 showed a Kd of 9700 pM.
B3 was tested, and the Kd was 9800 pM.
In the case of B4, the Kd is reported as 7800 pM.
B5 gave a Kd of 9600 pM.
For B6, the Kd was 8300 pM.

These binders were tested against T1, human Interleukin-2 (assay: BLI, equilibrium KD from titration curve, immobilised human IL-2, soluble antibody; Equilibrium KD, not kinetic KD).
Binder B1 has a Kd of 6500 pM.

Target: T1, human Interleukin-2
Assay: BLI, kinetic KD, immobilised human IL-2, soluble antibody
Remark: another data set of the same source
Method: as §1, with “model. Equilibrium binding was determined by total response measured after 295 s. Equilibrium titration curve fitting and KD value determination was implemented using GraphPad Prism, assuming all binding interactions to be first order.” for “model.”
Binder B7 has a Kd of 2500 pM.
In the case of B8, the Kd is reported as 1800 pM.
B9 gave a Kd of 2500 pM.

Each binder was assayed against T1, human Interleukin-2 (assay: cell-based or functional assay).
In the case of B7, the “YT+ EC50 (STAT5 phosphorylation, IL-2Rα+ YT-1 cells)” value (“YT+ EC50” below) is reported as 180 pM and the “YT- EC50 (STAT5 phosphorylation, IL-2Rα- YT-1 cells)” value (from here on “YT- EC50”) is reported as 5200 pM.
B8 was tested, and the “YT+ EC50” value was 170 pM and the “YT- EC50” value was 4500 pM.
B9 was tested, and the “YT+ EC50” value was 160 pM and the “YT- EC50” value was 6000 pM.

Target: T1, human Interleukin-2
Assay: cell-based or functional assay
Remark: another data set of the same source
B1 was tested, and the “YT+ EC50” value was 150 pM and the “YT- EC50” value was 660 pM.
With B2 the “YT+ EC50” value was 170 pM and the “YT- EC50” value was 520 pM.
In the case of B3, the “YT+ EC50” value is reported as 39 pM and the “YT- EC50” value is reported as 790 pM.
In the case of B4, the “YT+ EC50” value is reported as 43 pM and the “YT- EC50” value is reported as 890 pM.
B5 was tested, and the “YT+ EC50” value was 98 pM and the “YT- EC50” value was 440 pM.
In the case of B6, the “YT+ EC50” value is reported as 89 pM and the “YT- EC50” value is reported as 390 pM.

These binders were tested against T1, human Interleukin-2 (assay: BLI (Octet), immobilised human IL-2, soluble antibody, 1:1 Langmuir fit).
Binder B1 has a koff of 0.00022 s⁻¹ and a kon of 360000 M⁻¹ s⁻¹.
B2 gave a koff of 0.00014 s⁻¹ and a kon of 270000 M⁻¹ s⁻¹.
In the case of B3, the koff is reported as 0.00023 s⁻¹ and the kon is reported as 280000 M⁻¹ s⁻¹.
For B4, the koff was 0.00038 s⁻¹ and the kon was 330000 M⁻¹ s⁻¹.
Work on B5 yielded a koff of 0.00021 s⁻¹ and a kon of 270000 M⁻¹ s⁻¹.
Work on B6 yielded a koff of 0.00017 s⁻¹ and a kon of 310000 M⁻¹ s⁻¹.
